Patent publication US20250122303A1 (HUMMINGBIRD BIOSCIENCE PTE, published 2025)
Like-named read-outs stand apart in the source and are kept apart here. One block for each binder: values may come before it.

Experiments:
rat HER3 = molecular target: T1, rat HER3 (rat, UniProt Q62799 20-641, limits assumed); assay: ELISA, plate coated with 0.1 ug/ml rat HER3, antibody titrated, absorbance 450 nm
T1 construct: also called rat homologue of HER3 (Sino Biological Inc.); R. norvegicus HER3
Protocol: (§1) ELISAs were used to determine the binding specificity of the antibodies. The antibodies were analysed for binding to human HER3 polypeptide, as well as respective mouse, rat and monkey homologues of HER3 (Sino Biological Inc., China). The antibodies were also analysed for their ability to bind to human EGFR and human HER2 (Sino Biological Inc., China).
(§2) ELISAs were carried out according to standard protocols. Briefly, 96-well plates (Nunc, Denmark) were coated with 0.1 μg/ml of target polypeptide in phosphate-buffered saline (PBS) for 16 h at 4° C. After blocking for 1 h with 1% BSA in Tris buffer saline (TBS) at room temperature, the anti-HER3 antibody was serially diluted with the highest concentration being 10 μg/ml, and added to the plate. Post 1 h incubation at room temperature, plates were washed three times with TBS containing 0.05% Tween 20 (TBS-T) and were then incubated with a HRP-conjugated […] antibody (Life Technologies, Inc., USA) for 1 h at room temperature. After washing, plates were developed with colorimetric detection substrate 3,3′,5,5′-tetramethylbenzidine (Turbo-TMB; Pierce, USA) for 10 min. The reaction was stopped with 2M H₂SO₄, and OD was measured at 450 nm.

human HER3 polypeptide [1] = molecular target: T2, human HER3 polypeptide (human, UniProt P21860 20-643); assay: ELISA, plate coated with 0.1 ug/ml human HER3, antibody titrated, absorbance 450 nm
T2 construct: Recombinant antigen of the ELISAs; also called human HER3 (Sino Biological Inc.); human antigen HER3
Protocol: as §1, §2

human HER3 polypeptide [2] = molecular target: T2, human HER3 polypeptide; assay: as above; remark: listed apart in the source
Protocol: as §1, §2

mouse HER3 = molecular target: T3, mouse HER3 (mouse, UniProt Q61526 20-641); assay: ELISA, plate coated with 0.1 ug/ml mouse HER3, antibody titrated, absorbance 450 nm
T3 construct: also called mouse homologue of HER3 (Sino Biological Inc.); M. musculus HER3
T3 sequence (Q61526 20-641 limits assumed): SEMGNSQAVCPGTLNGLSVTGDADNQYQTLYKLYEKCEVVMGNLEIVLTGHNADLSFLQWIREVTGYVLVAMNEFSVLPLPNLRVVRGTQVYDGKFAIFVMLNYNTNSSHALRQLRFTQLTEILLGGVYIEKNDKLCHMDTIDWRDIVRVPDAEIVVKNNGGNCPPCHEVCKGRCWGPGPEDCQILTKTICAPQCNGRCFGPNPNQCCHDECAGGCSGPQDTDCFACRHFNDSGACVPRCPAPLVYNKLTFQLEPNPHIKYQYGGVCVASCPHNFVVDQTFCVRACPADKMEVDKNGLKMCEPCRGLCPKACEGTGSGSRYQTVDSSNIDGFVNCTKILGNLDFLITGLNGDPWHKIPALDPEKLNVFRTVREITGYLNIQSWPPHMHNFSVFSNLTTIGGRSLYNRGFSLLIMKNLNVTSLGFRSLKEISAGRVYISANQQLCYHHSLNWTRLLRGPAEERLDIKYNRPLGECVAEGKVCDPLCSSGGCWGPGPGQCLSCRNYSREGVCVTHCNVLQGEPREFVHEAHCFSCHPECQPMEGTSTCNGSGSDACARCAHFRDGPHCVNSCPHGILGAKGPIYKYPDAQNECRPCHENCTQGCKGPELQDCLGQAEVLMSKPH
Protocol: as §1, §2

human EGFR = molecular target: T4, human EGFR (human, UniProt P00533 25-645); assay: ELISA, plate coated with 0.1 ug/ml human EGFR, antibody titrated, absorbance 450 nm
T4 construct: also called human HER1 (EGFR) (Sino Biological Inc.)
Protocol: as §1, §2

human HER2 = molecular target: T5, human HER2 (human, UniProt P04626 23-652); assay: ELISA, plate coated with 0.1 ug/ml human HER2, antibody titrated, absorbance 450 nm
T5 construct: also called human HER2 (Sino Biological Inc.)
Protocol: as §1, §2

cynomolgus macaque HER3 = molecular target: T6, cynomolgus macaque HER3 (cynomolgus macaque, UniProt G7PIG5 20-643); assay: ELISA, plate coated with 0.1 ug/ml cynomolgus HER3, antibody titrated, absorbance 450 nm
T6 construct: also called monkey homologue of HER3 (Sino Biological Inc.); HER3 cyno
T6 sequence (G7PIG5 entry or part of it): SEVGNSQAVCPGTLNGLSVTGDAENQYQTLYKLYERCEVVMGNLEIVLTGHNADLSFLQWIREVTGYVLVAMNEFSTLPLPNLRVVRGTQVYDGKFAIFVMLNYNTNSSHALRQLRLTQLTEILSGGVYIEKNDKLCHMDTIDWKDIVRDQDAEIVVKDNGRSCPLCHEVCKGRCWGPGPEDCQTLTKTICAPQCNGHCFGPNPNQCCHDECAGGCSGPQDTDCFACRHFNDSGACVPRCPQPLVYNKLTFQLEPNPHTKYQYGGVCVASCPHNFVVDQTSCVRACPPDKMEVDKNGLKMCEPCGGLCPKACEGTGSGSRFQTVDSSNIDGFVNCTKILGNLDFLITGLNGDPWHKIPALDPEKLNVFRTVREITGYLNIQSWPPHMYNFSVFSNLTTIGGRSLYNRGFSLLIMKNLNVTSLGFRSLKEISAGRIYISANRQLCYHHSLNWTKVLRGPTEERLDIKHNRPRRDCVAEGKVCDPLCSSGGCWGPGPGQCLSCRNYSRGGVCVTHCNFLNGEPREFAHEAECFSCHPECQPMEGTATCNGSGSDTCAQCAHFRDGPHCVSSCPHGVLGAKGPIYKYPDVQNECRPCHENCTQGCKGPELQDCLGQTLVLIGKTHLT
Protocol: as §1, §2

[3] = molecular target: T7, His-tagged FcγRIIIa (V158) (human, UniProt P08637 17-208); assay: Bio-Layer Interferometry; His-tagged FcγRIIIa (V158) on anti-Penta-HIS tips, antibody in solution
T7 construct: not shown: His tag
Protocol: (§3) All measurements were performed at 25° C. with agitation at 1000 rpm. […] Sensograms were referenced for buffer effects and then fitted using the Octet QK384 user software (Pall ForteBio, USA). Kinetic responses were subjected to a global fitting using a one site binding model to obtain values for association (Kₒₙ), dissociation (Koff) rate constants and the equilibrium dissociation constant (KD). Only curves that could be reliably fitted with the software (R²>0.90) were included in the analysis.
BLI was performed as described above.

His-tagged human HER3 [4] = molecular target: T8, His-tagged human HER3 (human, UniProt P21860 20-643); assay: BLI (Octet QK384), antibody on anti-human IgG capture tips, His-tagged human HER3 in solution, global one-site fit
T8 construct: Antigen of the BLI experiments and of the HER2-Fc dimerisation ELISA; also called HER3 His; not shown: His tag
Protocol: as §3, with “The anti-HER3 antibody clones in IgG1 format were analysed for binding affinity to human HER3. Bio-Layer Interferometry (BLI) experiments were performed using the Octet QK384 system (ForteBio). anti-Human IgG Capture (AHC) Octet sensor tips (Pall ForteBio, USA) were used to anti-HER3 antibodies (25 nM). All” for “All”

[5] = molecular target: T9, human HER3 expressed on cells (HEK293 HER3 O/E cells) (human, UniProt P21860 20-1342); assay: flow cytometry on HEK293T HER3 O/E cells, 10 ug antibody as printed, FITC-conjugated anti-Fc secondary
T9 construct: Also used here for HER3 on U2OS cells of the PathHunter kit and on cancer cell lines; also called HEK293 cells transfected with vector encoding human HER3; human HER3-expressing cells
Protocol: The cells were washed with buffer (PBS with 2 mM EDTA and 0.5% BSA) and resuspended in FITC-conjugated anti-FC antibody (Invitrogen, USA) at 10 μg/ml for 20 min at 4° C. Cells were washed again and resuspended in 200 μL of FACS flow buffer (PBS with 5 mM EDTA) for flow cytometric analysis using MACSQuant 10 (Miltenyi Biotec, Germany). Unstained WT and transfected HEK293 cells were included in the analysis as negative controls. After acquisition, all raw data were analyzed using Flowlogic software. Cells were gated using forward and side scatter profile percentage of positive cells was determined for native and overexpressing cell populations.

His-tagged human HER3 [6] = molecular target: T8, His-tagged human HER3; assay: BLI (Octet QK384), antibody on anti-human IgG capture tips, His-tagged human HER3 35-278 nM, global 1:1 fit; kdis Error 1.56E-04
Protocol: as §3, with “The anti-HER3 antibody clones in IgG1 format were analysed for binding affinity to human HER3. Bio-Layer Interferometry (BLI) experiments were performed using the Octet QK384 system (ForteBio). anti-Human IgG Capture (AHC) Octet sensor tips (Pall ForteBio, USA) were used to anti-HER3 antibodies (25 nM). All” for “All”

[7] = molecular target: T9, human HER3 expressed on cells (HEK293 …); assay: flow cytometry, HEK293 cells overexpressing human HER3, 20 ug/ml antibody, FITC anti-Fc secondary; same antibody on WT HEK293: 0.60
Protocol: (§4) The cells were washed thrice with FACS buffer (PBS with 5 mM EDTA and 0.5% BSA) and resuspended in FITC-conjugated anti-FC antibody (Invitrogen, USA) for 40 min at 2-8° C. Cells were washed again and resuspended in 200 μL of FACS flow buffer (PBS with 5 mM EDTA) for flow cytometric analysis using MACSQuant 10 (Miltenyi Biotec, Germany). After acquisition, all raw data were analyzed using Flowlogic software. Cells were gated using forward and side scatter profile percentage of positive cells was determined for native and overexpressing cell populations.

[8] = molecular target: T9, human HER3 expressed on cells (HEK293 …); assay: as above; remark: listed apart in the source
Protocol: as §4

His-tagged human HER3 [9] = molecular target: T8, His-tagged human HER3; assay: BLI (Octet QK384), antibody on anti-human IgG capture tips, His-tagged human HER3 in solution, global 1:1 fit, R^2 = 0.9898, kon Error 8.22E+03; Response 0.0794 / 0.1744 / 0.3278 / 0.5079 at 35 / 69 / 139 / 278 nM
Protocol: as §3, with “The anti-HER3 antibody clones in IgG1 format were analysed for binding affinity to human HER3. Bio-Layer Interferometry (BLI) experiments were performed using the Octet QK384 system (ForteBio). anti-Human IgG Capture (AHC) Octet sensor tips (Pall ForteBio, USA) were used to anti-HER3 antibodies (25 nM). All” for “All”

human HER3 polypeptide [10] = molecular target: T2, human HER3 polypeptide; assay: ELISA, plate coated with human HER3, antibody titrated, absorbance 450 nm, x axis Log([Ab]) (ug/ml)
His-tagged human HER3 [11] = molecular target: T8, His-tagged human HER3; assay: BLI (Octet QK384), antibody on anti-human IgG capture tips, His-tagged human HER3 35-278 nM, global 1:1 fit
Protocol: as §3, with “The anti-HER3 antibody clones in IgG1 format were analysed for binding affinity to human HER3. Bio-Layer Interferometry (BLI) experiments were performed using the Octet QK384 system (ForteBio). anti-Human IgG Capture (AHC) Octet sensor tips (Pall ForteBio, USA) were used to anti-HER3 antibodies (25 nM). All” for “All”

[12] = molecular target: T9, human HER3 expressed on cells (HEK293 …); assay: flow cytometry, HEK293 cells overexpressing human HER3 (293_OE HER3), 20 ug/ml antibody, FITC anti-Fc secondary; same antibody on 293 cells: 2.48; unstained 293: 0.14
Protocol: as §4

His-tagged human HER3 [13] = molecular target: T8, His-tagged human HER3; assay: BLI (Octet QK384), antibody on anti-human IgG capture tips, His-tagged human HER3 in solution, global 1:1 fit, R^2 = 0.9891, kon Error 1.04E+04; Response 0.1355 / 0.3221 / 0.4533 / 0.5944 at 35 / 39 (as printed in the table; graph label 69) / 139 / 278 nM
Protocol: as §3, with “The anti-HER3 antibody clones in IgG1 format were analysed for binding affinity to human HER3. Bio-Layer Interferometry (BLI) experiments were performed using the Octet QK384 system (ForteBio). anti-Human IgG Capture (AHC) Octet sensor tips (Pall ForteBio, USA) were used to anti-HER3 antibodies (25 nM). All” for “All”

His-tagged human HER3 [14] = molecular target: T8, His-tagged human HER3; assay: BLI (Octet QK384), antibody on anti-human IgG capture tips, His-tagged human HER3 35-278 nM, global 1:1 fit; kdis Error 1.11E-04
Protocol: as §3, with “The anti-HER3 antibody clones in IgG1 format were analysed for binding affinity to human HER3. Bio-Layer Interferometry (BLI) experiments were performed using the Octet QK384 system (ForteBio). anti-Human IgG Capture (AHC) Octet sensor tips (Pall ForteBio, USA) were used to anti-HER3 antibodies (25 nM). All” for “All”

[15] = molecular target: T9, human HER3 expressed on cells (HEK293 …); assay: flow cytometry, HEK293 cells overexpressing human HER3 (293_OE HER3), 20 ug/ml antibody, FITC anti-Fc secondary; same antibody on 293 cells: 5.38; unstained 293: 0.14
Protocol: as §4

His-tagged human HER3 [16] = molecular target: T8, His-tagged human HER3; assay: BLI (Octet QK384), antibody on anti-human IgG capture tips, His-tagged human HER3 in solution, global 1:1 fit, R^2 = 0.9917, kon Error 9.57E+03; Response 0.1296 / 0.2851 / 0.4098 / 0.5575 at 35 / 69 / 139 / 278 nM
Protocol: as §3, with “The anti-HER3 antibody clones in IgG1 format were analysed for binding affinity to human HER3. Bio-Layer Interferometry (BLI) experiments were performed using the Octet QK384 system (ForteBio). anti-Human IgG Capture (AHC) Octet sensor tips (Pall ForteBio, USA) were used to anti-HER3 antibodies (25 nM). All” for “All”

T1 sequence (Q62799 20-641 limits assumed): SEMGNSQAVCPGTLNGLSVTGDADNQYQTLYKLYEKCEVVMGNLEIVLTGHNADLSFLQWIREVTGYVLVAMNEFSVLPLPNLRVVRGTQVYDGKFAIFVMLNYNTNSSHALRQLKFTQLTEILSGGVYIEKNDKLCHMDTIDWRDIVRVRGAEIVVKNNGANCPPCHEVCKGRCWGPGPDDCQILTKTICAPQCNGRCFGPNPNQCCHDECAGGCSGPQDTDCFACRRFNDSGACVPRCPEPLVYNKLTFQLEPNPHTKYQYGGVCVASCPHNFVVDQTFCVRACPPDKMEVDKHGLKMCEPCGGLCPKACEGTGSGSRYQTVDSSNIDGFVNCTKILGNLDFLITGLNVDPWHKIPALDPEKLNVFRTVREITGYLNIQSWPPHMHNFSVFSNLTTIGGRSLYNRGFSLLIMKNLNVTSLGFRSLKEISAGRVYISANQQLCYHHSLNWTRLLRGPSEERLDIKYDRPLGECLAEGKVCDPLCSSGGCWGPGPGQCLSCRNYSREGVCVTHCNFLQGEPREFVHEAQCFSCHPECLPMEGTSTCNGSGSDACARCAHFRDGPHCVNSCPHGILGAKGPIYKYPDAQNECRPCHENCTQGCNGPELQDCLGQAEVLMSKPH

EC50 (rat HER3): 0.372 nM
EC50 (human HER3 polypeptide [1]): 0.00588 nM
EC50 (human HER3 polypeptide [2]): 0.00588 nM
EC50 (mouse HER3): 0.137 nM
binding result (human EGFR): no binding (tested: log(M) about -6.7)
binding result (human HER2): no binding (tested: log(M) about -6.7)
EC50 (cynomolgus macaque HER3): 0.00368 nM
Kd [3]: 298 nM
koff [3]: 0.04 s⁻¹
kon [3]: 130000 M⁻¹ s⁻¹
Kd (His-tagged human HER3 [4]): 9.58 nM
% Parent (HER3 positive) [5]: 65.7%
koff (His-tagged human HER3 [6]): 0.00173 s⁻¹
% Parent (HER3 positive) [7]: 99%
% Parent (HER3 positive) [8]: 99%
kon (His-tagged human HER3 [9]): 180000 M⁻¹ s⁻¹
B1: anti-HER3 clone 10D1 IgG1 (antibody)
heavy: not shown
light: DIVMTQSQKFMSTSVGDRVSVTCKASQIVGSNVAWYQQKPGQSPKPLIYSASYRYSGVPDRFTASGSGTDFTLTITNVQSEDLAEYFCQQYSSHPLTFGAGTKLELKRTVAAPSVFIFPPSDEQLKSGTASVVCLLNNFYPREAKVQWKVDNALQSGNSQESVTEQDSKDSTYSLSSTLTLSKADYEKHKVYACEVTHQGLSSPVTKSFNRGEC
notes: Mouse variable regions on human IgG1/kappa constant regions (human-mouse chimeric antibody); also called 10D1P; 10D1 (parental)

Kd (His-tagged human HER3 [4]): < 0.001 nM
EC50 (read off the curve) (human HER3 polypeptide [10]): ~7 ng/mL
koff (His-tagged human HER3 [11]): < 1e-07 s⁻¹
% Parent (HER3 positive) [12]: 41.8%
kon (His-tagged human HER3 [13]): 252000 M⁻¹ s⁻¹
B2: anti-HER3 clone 10D1_c90 IgG1 (antibody, V domains shown)
VH: QVQLQESGPGLVKPSQTLFLTCTVSGYSITSGYSWHWIRQHPGKGLEWIGSIRYSGGTDYNPSLKSLVTISVDTSKNQFSLKLSSVTAADTAVYYCARMTTAPWYPFDYWGQGTTVTVSS
VL: DIQMTQSPSSVSASVGDRVTFTCKASQIVGSNVAWYQQKPGKAPEPLIYSASYLYSSVPSRFSGSGSGTEFTMTISSLEPEDFATYYCQQYTTHPLTFGPGTKVEIKR
notes: Humanised 10D1 variant, IgG1/kappa

Kd (His-tagged human HER3 [4]): 0.176 nM
EC50 (read off the curve) (human HER3 polypeptide [10]): ~5 ng/mL
koff (His-tagged human HER3 [14]): 4.73e-05 s⁻¹
% Parent (HER3 positive) [15]: 48%
kon (His-tagged human HER3 [16]): 269000 M⁻¹ s⁻¹
B3: anti-HER3 clone 10D1_c91 IgG1 (antibody, V domains shown)
VH: QVQLQESGPGLVKPSQTLSLTCTVSGYYITSGYSWHWIRQHPGKGLEWIGSIRYSGGTDYNPSLKSLATISADTSKNQFSLKLSSVTAADTAVYYCARMTTAPWYPFDYWGQGTAVTVSS
VL: DIQMTQSPSSVSASVGDRVTITCKASQIVGSNVAWYQQKPGKAPMPLIYSASYGYSGVPSRFSGSGSGTDFTLTISSLQPEDFATYYCQQYSSHPLTFGQGTKLEIKR
notes: as for B2
